Reference: patent US7026443
Where two headings read alike, the source gives them in different places.

Legend:
[1] = biological target: HLA-A*0201 (human); experiment: inhibition of binding of 125I-labelled standard peptide to purified HLA, gel filtration
[2] = biological target: HLA-A*0201 (human); experiment: competition with 125I-labeled standard peptide for purified HLA-A*0201, gel filtration
[3] = remark: other sources report otherwise

| Binder | relative binding ratio (IC50 of standard peptide / IC50 of test peptide) [1] | relative binding ratio (IC50 of standard peptide / IC50 of test peptide) (ratio to standard peptide) [2] | other results |
| --- | --- | --- | --- |
| MLDLQPETT (modifications not checked) [HPV16 E7 peptide … (position 12, 9 amino acids)] |  |  | relative binding ratio (IC50 of standard peptide / IC50 of test peptide) [1, 3]: 0.0028 |
| HLEPQNEI (modifications not checked) [HPV18 E7 peptide HLEPQNEI (position 14, 8 amino acids)] |  | 0.0001 |  |
| DIRTLEDL (modifications not checked) [HPV16 E7 peptide DIRTLEDL (position 75, 8 amino acids)] | 0.0001 |  |  |
| TIHDIILECV (modifications not checked) [HPV16 E6 peptide … (position 29, 10 amino acids)] | 0.021 |  |  |
| DLLMGTLGIV (modifications not checked) [HPV16 E7 peptide … (position 81, 10 amino acids)] |  |  | relative binding ratio (IC50 of standard peptide / IC50 of test peptide) [1, 3]: 0.0005 |
| HVDIRTLEDL (modifications not checked) [HPV16 E7 peptide … (position 73, 10 amino acids)] | 0.0001 |  |  |
| RTLEDLLMGT (modifications not checked) [HPV16 E7 peptide … (position 77, 10 amino acids)] |  |  | relative binding ratio (IC50 of standard peptide / IC50 of test peptide) [1, 3]: 0.0006 |
| KLVVESSADDL (modifications not checked) [HPV18 E7 peptide … (position 73, 11 amino acids)] |  | 0.0001 |  |
| MLDLQPET (modifications not checked) [HPV16 E7 peptide MLDLQPET (position 12, 8 amino acids)] |  |  | relative binding ratio (IC50 of standard peptide / IC50 of test peptide) [1, 3]: 0.0001 |
| LLMGTLGI (modifications not checked) [HPV16 E7 peptide LLMGTLGI (position 82, 8 amino acids)] | 0.0008 |  |  |
| FLNTLSFV (modifications not checked) [HPV18 E7 peptide FLNTLSFV (position 90, 8 amino acids)] |  | 0.0079 |  |
| KLVVESSA (modifications not checked) [HPV18 E7 peptide KLVVESSA (position 73, 8 amino acids)] |  | 0.0001 |  |
| DLQPETTDL (modifications not checked) [HPV16 E7 peptide … (position 14, 9 amino acids)] | 0.0003 |  |  |
| VLHLEPQNEI (modifications not checked) [HPV18 E7 peptide … (position 12, 10 amino acids)] |  | 0.0001 |  |
| RLCVQSTHV (modifications not checked) [HPV16 E7 peptide … (position 66, 9 amino acids)] |  |  | relative binding ratio (IC50 of standard peptide / IC50 of test peptide) [1, 3]: 0.0003 |
| AVFKDTYGL (modifications not checked) [HPV18 E1 216 peptide …] |  | 0.014 |  |

Further lines, with some results ahead:

| relative binding ratio (IC50 of standard peptide / IC50 of test peptide) [1] | relative binding ratio (IC50 of standard peptide / IC50 of test peptide) (ratio to standard peptide) [2] | Binder | other results |
| --- | --- | --- | --- |
| 0.0001 |  | LMGTLGIV (modifications not checked) [HPV16 E7 peptide LMGTLGIV (position 83, 8 amino acids)] |  |
|  | 0.0001 | GVNHQHLPA (modifications not checked) [HPV18 E7 peptide … (position 43, 9 amino acids)] |  |
|  | 0.0003 | RAFQQLFLNT (modifications not checked) [HPV18 E7 peptide … (position 84, 10 amino acids)] |  |
|  | 0.0001 | LVVESSADDL (modifications not checked) [HPV18 E7 peptide … (position 74, 10 amino acids)] |  |
|  | 0.0001 | HLEPQNEIPV (modifications not checked) [HPV18 E7 peptide … (position 14, 10 amino acids)] |  |
| 0.0002 |  | DLLMGTLGI (modifications not checked) [HPV16 E7 peptide … (position 81, 9 amino acids)] |  |
|  | 0.0002 | CLDCKWGVLI (modifications not checked) [HPV18 E1 273 peptide …] |  |
|  | 0.0016 | MLCMCCKCEA (modifications not checked) [HPV18 E7 peptide … (position 61, 10 amino acids)] |  |
| 0.0005 |  | MLDLQPETTDL (modifications not checked) [HPV16 E7 peptide … (position 12, 11 amino acids)] |  |
